In assay [1] the target is RHDV VP60 P domain fragment (a.a. 228-579), JX/CHA/97 isolate strain (rabbit hemorrhagic disease virus (JX/CHA/97 isolate strain)). Description: crystal structure; P domain (a.a. 228-579) crystals, space group P212121, hanging drop at 289 K, 0.1 M sodium acetate, 1.1 M succinic acid pH 5.5, 1.0% PEG2000MME; 2.0 Å; dimer in the asymmetric unit.
Assay [2] has as its target RHDV major capsid protein VP60 (in the native virion, HYD isolate strain) (rabbit hemorrhagic disease virus (HYD isolate strain)). The assay can be described thus: cryo-EM structure; RHDV virions purified from infected rabbit livers, TNE buffer, vitrified; FEI Titan Krios 300 keV; ~36,000 particles; 6.5 Å overall (FSC 0.5), 5.5 Å in the inner shell; pseudo-atomic model by docking of the S and P crystal structures and MDFF.

Here are results for two substances from publication PMC3547835.

One may read the stoichiometry N as the number of molecules, sites or subunits per partner or assembly. In the case of “RHDV VP60 P domain fragment (a.a. 228-579), JX/CHA/97 isolate strain (domain or fragment)”, the stoichiometry N in assay [1] is 2.
As for “RHDV major capsid protein VP60 (in the native virion, HYD isolate strain) (natural protein)”, in assay [2], the stoichiometry N turned out to be 180.
